Laboratory results published in US20220202905A1, “COMPOSITION FOR PREVENTING OR TREATING NEUROTROPHIC KERATITIS WHICH CONTAINS PACAP PEPTIDE OR STABILIZED PACAP PEPTIDE” (SENJU PHARMACEUTICAL CO., LTD., priority 2019, published 2022).
Square brackets hold non-standard residues; d marks the D form. Peptide text beside a SMILES is read from it. Ala(1H-tetrazol-5-yl) = N[C@@H](Cc1nnn[nH]1)C(=O)O

How the values were obtained:
[1] = Peptide stability test, Tris buffer (pH 7.0), 60° C. storage, HPLC remaining rate; format: physicochemical; conditions: Table 7-2; 100 μM in Tris buffer pH 7.0
Experimental: Peptides 1, 2 and 6 to 9 synthesized in Example 2 were weighed and dissolved in Tris buffer (pH 7.0) to prepare 1.0 mM peptide solutions. Each solution was filtered with a Chromatdisk (product of Merck Millipore, Millex-GV, 0.22 μm). The filtrate was diluted to 100 μM with Tris buffer (pH 7.0) and dispensed into a tube (Protein LoBind Tube by Eppendorf Co.). The prepared peptide solutions were incubated for 1 week or 2 weeks in a 60° C. thermostatic bath to obtain stored samples. A simultaneously prepared sample among the peptide solutions that was not stored was used as a standard sample (initial sample). The standard sample and the stored samples were stored at −30° C. until sample analysis. Each stored sample was measured under the following HPLC analysis conditions 2, and the remaining rate after correction for water for each peptide among the stored samples was calculated in the same manner as Example 3. Guard column: XSelect CSH C18 by Waters Co., 5 μm, 4.6×20 mm Guard Cartridge Detection wavelength: 220 nm Mobile phase A: 0.1% formic acid aqueous solution Mobile phase B: 0.1% acetonitrile formate solution Measuring time: 20 minutes Measuring sample injection rate: 50 μL Flow rate: 1.0 mL/min Column temperature: 40° C. Sample cooler: 25° C. Mobile phase delivery: The mixing ratio of mobile phase A and mobile phase B was varied as shown in Table 5 for linear concentration gradient control. Peptides 12 to 25, 27 and 28 synthesized in Example 2 were weighed and dissolved in Tris buffer (pH 7.0) to prepare 1.0 mM peptide solutions. Each solution was filtered with a Chromatdisk (product of Merck Millipore, Millex-GV, 0.22 μm). The filtrate was diluted to 100 μM with Tris buffer (pH 7.0) and dispensed into a tube (Protein LoBind Tube by Eppendorf Co.). The prepared peptide solutions were incubated for one week or 2 weeks in a 60° C. thermostatic bath to obtain stored samples. A simultaneously prepared sample among the peptide solutions that was not stored was used as a standard sample (initial sample). The standard sample and the stored samples were stored at −30° C. until sample analysis. The remaining rate after correction for water for each peptide among the stored samples was calculated in the same manner as Example 4, and the results are shown in Table 7. Peptides 29 to 34 synthesized in Example 2 were weighed and dissolved in Tris buffer (pH 7.0) to prepare 1.0 mM peptide solutions. Each solution was filtered with a Chromatdisk (product of Merck Millipore, Millex-GV, 0.22 μm). The filtrate was diluted to 100 μM with Tris buffer (pH 7.0) and dispensed into a tube (Protein LoBind Tube by Eppendorf Co.). The prepared peptide solutions were incubated for 2 weeks in a 60° C. thermostatic bath to obtain stored samples. A simultaneously prepared sample among the peptide solutions that was not stored was used as a standard sample (initial sample). The standard sample and the stored samples were stored at −30° C. until sample analysis. The remaining rate after correction for water for each peptide among the stored samples was calculated in the same manner as Example 4, and the results are shown in Table 7-2. Peptide 26 synthesized in Example 2 was weighed and dissolved in Tris buffer (pH 7.0) to prepare a 1.0 mM peptide solution. The solution was filtered with a Chromatdisk (product of Merck Millipore, Millex-GV, 0.22 μm). The filtrate was diluted to 100 μM with Tris buffer (pH 7.0) and dispensed into a tube (Protein LoBind Tube by Eppendorf Co.). The prepared peptide solution was incubated for one week or 2 weeks in a 60° C. thermostatic bath to obtain stored samples. A simultaneously prepared sample among the peptide solutions that was not stored was used as a standard sample (initial sample). The standard sample and the stored sample were stored at −30° C. until sample analysis. […]

[2] = biological target: T1, PAC1 receptor (UniProt P41586 21-468, limits assumed); assay: cell-based or functional assay
T1 sequence (looked up): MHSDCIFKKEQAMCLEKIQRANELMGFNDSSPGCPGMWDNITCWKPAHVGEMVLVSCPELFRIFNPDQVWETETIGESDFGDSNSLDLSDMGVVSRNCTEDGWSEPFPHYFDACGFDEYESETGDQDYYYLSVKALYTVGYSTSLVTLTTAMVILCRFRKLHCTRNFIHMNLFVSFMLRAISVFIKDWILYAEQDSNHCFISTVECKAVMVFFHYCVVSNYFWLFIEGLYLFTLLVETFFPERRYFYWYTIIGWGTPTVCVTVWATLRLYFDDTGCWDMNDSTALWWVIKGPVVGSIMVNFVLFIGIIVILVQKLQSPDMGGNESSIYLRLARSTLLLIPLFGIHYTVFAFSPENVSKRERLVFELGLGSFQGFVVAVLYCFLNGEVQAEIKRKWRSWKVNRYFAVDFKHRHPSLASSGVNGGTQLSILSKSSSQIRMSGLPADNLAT

[3] = biological target: T2, VPAC1 receptor (UniProt P32241 31-457, limits assumed); assay: cell-based or functional assay
T2 sequence (looked up): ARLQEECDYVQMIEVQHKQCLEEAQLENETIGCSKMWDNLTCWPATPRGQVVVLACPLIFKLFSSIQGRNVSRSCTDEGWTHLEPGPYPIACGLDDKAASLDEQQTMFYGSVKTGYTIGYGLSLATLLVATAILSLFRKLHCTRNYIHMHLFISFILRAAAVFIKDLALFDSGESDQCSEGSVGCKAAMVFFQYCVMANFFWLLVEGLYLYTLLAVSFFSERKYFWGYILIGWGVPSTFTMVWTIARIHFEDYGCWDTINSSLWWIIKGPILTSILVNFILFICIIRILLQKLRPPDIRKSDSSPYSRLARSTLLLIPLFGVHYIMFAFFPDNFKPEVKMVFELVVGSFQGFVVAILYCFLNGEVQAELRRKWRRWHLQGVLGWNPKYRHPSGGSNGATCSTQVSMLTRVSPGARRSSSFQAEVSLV

remaining rate after correction for water, 60° C., 2 weeks preservation [1] [%]	EC50 (PAC1R), cAMP inducing effect [2] [nM]	EC50 (VPAC1R), cAMP inducing effect [3] [nM]	Molecule
88.7			CC[C@H](C)[C@H](NC(=O)[C@H](C)NC(=O)[C@H](Cc1nnn[nH]1)NC(=O)[C@H](CO)NC(=O)[C@H](Cc1c[nH]cn1)NC(C)=O)C(=O)N[C@@H](Cc1ccccc1)C(=O)N[C@H](C(=O)N[C@@H](Cc1nnn[nH]1)C(=O)N[C@@H](CO)C(=O)N[C@@H](Cc1ccc(O)cc1)C(=O)N[C@@H](CO)C(=O)N[C@@H](CCCNC(=N)N)C(=O)N[C@@H](Cc1ccc(O)cc1)C(=O)N[C@@H](CCCNC(=N)N)C(=O)N[C@@H](CCCCN)C(=O)N[C@@H](CCC(N)=O)C(=O)N[C@@H](C)C(=O)N[C@@H](C)C(=O)N[C@H](C(=O)N[C@@H](CCCCN)C(=O)N[C@@H](CCCCN)C(=O)N[C@@H](Cc1ccc(O)cc1)C(=O)N[C@@H](CC(C)C)C(=O)N[C@@H](C)C(=O)N[C@@H](C)C(=O)N[C@H](C(=O)N[C@@H](CC(C)C)C(N)=O)C(C)C)C(C)C)[C@@H](C)O [Peptide 32] (Ac-HS[Ala(1H-tetrazol-5-yl)]AIFT[Ala(1H-tetrazol-5-yl)]SYSRYRKQAAVKKYLAAVL-NH2)
85.3			CC[C@H](C)[C@H](NC(=O)[C@H](C)NC(=O)[C@H](Cc1nnn[nH]1)NC(=O)[C@H](C)NC(=O)[C@H](Cc1c[nH]cn1)NC(C)=O)C(=O)N[C@@H](Cc1ccccc1)C(=O)N[C@H](C(=O)N[C@@H](Cc1nnn[nH]1)C(=O)N[C@@H](CO)C(=O)N[C@@H](Cc1ccc(O)cc1)C(=O)N[C@@H](CO)C(=O)N[C@@H](CCCNC(=N)N)C(=O)N[C@@H](Cc1ccc(O)cc1)C(=O)N[C@@H](CCCNC(=N)N)C(=O)N[C@@H](CCCCN)C(=O)N[C@@H](CCC(N)=O)C(=O)N[C@@H](C)C(=O)N[C@@H](C)C(=O)N[C@H](C(=O)N[C@@H](CCCCN)C(=O)N[C@@H](CCCCN)C(=O)N[C@@H](Cc1ccc(O)cc1)C(=O)N[C@@H](CC(C)C)C(=O)N[C@@H](C)C(=O)N[C@@H](C)C(=O)N[C@H](C(=O)N[C@@H](CC(C)C)C(N)=O)C(C)C)C(C)C)[C@@H](C)O [Peptide 33] (Ac-HA[Ala(1H-tetrazol-5-yl)]AIFT[Ala(1H-tetrazol-5-yl)]SYSRYRKQAAVKKYLAAVL-NH2)
96.9			CC[C@H](C)[C@H](NC(=O)[C@H](C)NC(=O)[C@H](Cc1nnn[nH]1)NC(=O)[C@H](CO)NC(=O)[C@H](Cc1c[nH]cn1)NC(C)=O)C(=O)N[C@@H](Cc1ccccc1)C(=O)N[C@H](C(=O)N[C@@H](Cc1nnn[nH]1)C(=O)N[C@@H](CO)C(=O)N[C@@H](Cc1ccc(O)cc1)C(=O)N[C@@H](CO)C(=O)N[C@@H](CCCNC(=N)N)C(=O)N[C@@H](Cc1ccc(O)cc1)C(=O)N[C@@H](CCCNC(=N)N)C(=O)N[C@@H](CCCCN)C(=O)N[C@@H](C)C(=O)N[C@@H](C)C(=O)N[C@@H](C)C(=O)N[C@H](C(=O)N[C@@H](CCCCN)C(=O)N[C@@H](CCCCN)C(=O)N[C@@H](Cc1ccc(O)cc1)C(=O)N[C@@H](CC(C)C)C(=O)N[C@@H](C)C(=O)N[C@@H](C)C(=O)N[C@H](C(=O)N[C@@H](CC(C)C)C(N)=O)C(C)C)C(C)C)[C@@H](C)O [Peptide 34] (Ac-HS[Ala(1H-tetrazol-5-yl)]AIFT[Ala(1H-tetrazol-5-yl)]SYSRYRKAAAVKKYLAAVL-NH2)
	0.099	0.132	HSXGIFTXSYSRYRKALAVKKYLAAVL (N-terminal acetyl (Ac-); Tz (aspartic acid with carboxyl group replaced by tetrazole) at positions 3 and 8; C-terminal amide (NH2)) [Peptide 17]
	0.04	0.053	HSDGIFTXSYSRYRKQMAVKKYLAAVL (Tz (aspartic acid with carboxyl group replaced by tetrazole) at position 8; C-terminal amide (NH2)) [Peptide 4]
	0.094	0.044	HSXGIFTXSYSRYRKQLAAKKYLAAVL (N-terminal acetyl (Ac-); Tz (aspartic acid with carboxyl group replaced by tetrazole) at positions 3 and 8; C-terminal amide (NH2)) [Peptide 19]
	0.074	0.099	HAXGIFTXSYSRYRKQLAVKKYLAAVL (N-terminal acetyl (Ac-); Tz (aspartic acid with carboxyl group replaced by tetrazole) at positions 3 and 8; C-terminal amide (NH2)) [Peptide 14]
	0.061	0.149	HSXGIFTXAYSRYRKQLAVKKYLAAVL (N-terminal acetyl (Ac-); Tz (aspartic acid with carboxyl group replaced by tetrazole) at positions 3 and 8; C-terminal amide (NH2)) [Peptide 15]
	0.061	0.033	HSXGIFTXSYSRYRKQAAVKKYLAAVL (N-terminal acetyl (Ac-); Tz (aspartic acid with carboxyl group replaced by tetrazole) at positions 3 and 8; C-terminal amide (NH2)) [Peptide 18]
	0.076	0.101	HSXGIFTXSYSRYRKQMAVKKYLAAVL (N-terminal acetyl (Ac-); Tz (aspartic acid with carboxyl group replaced by tetrazole) at positions 3 and 8; C-terminal amide (NH2)) [Peptide 10]
	0.33	0.065	HSXGIFTXSYARYRKQLAVKKYLAAVL (N-terminal acetyl (Ac-); Tz (aspartic acid with carboxyl group replaced by tetrazole) at positions 3 and 8; C-terminal amide (NH2)) [Peptide 16]
	0.08	0.04	HSXGIFTXSYSRYRKQLAVKKYLAAVA (N-terminal acetyl (Ac-); Tz (aspartic acid with carboxyl group replaced by tetrazole) at positions 3 and 8; C-terminal amide (NH2)) [Peptide 20]
	0.033	0.064	HSXGIFTXSYSRYRKQMAVKKYLAAVL (Tz (aspartic acid with carboxyl group replaced by tetrazole) at positions 3 and 8; C-terminal amide (NH2)) [Peptide 5]
	0.038	0.19	HSXGIFTXSYSRYRKQXAVKKYLAAVL (N-terminal mesyl (Ms-); Tz (aspartic acid with carboxyl group replaced by tetrazole) at positions 3 and 8; norleucine at position 17; C-terminal amide (NH2)) [Peptide 11]
	0.023	0.087	HSXGIFTXSYSRYRKQLAVKKYLAAVL (N-terminal mesyl (Ms-); Tz (aspartic acid with carboxyl group replaced by tetrazole) at positions 3 and 8; C-terminal amide (NH2)) [Peptide 12]
	0.132	0.072	HSXGIFTXSYSRYRKXLAVKKYLAAVL (N-terminal acetyl (Ac-); Tz (aspartic acid with carboxyl group replaced by tetrazole) at positions 3 and 8; egTz (glutamine with amide replaced by tetrazole) at position 16; C-terminal amide (NH2)) [Peptide 13]
		0.101	HSXGIFTDSYSRYRKQMAVKKYLAAVL (Tz (aspartic acid with carboxyl group replaced by tetrazole) at position 3; C-terminal amide (NH2)) [Peptide 3]
